Reference: patent US20220401557A1 (Chugai, published 2022)

Molecular target: CD3 on NFAT-RE-luc2-Jurkat cells (human, UniProt P07766 23-207)
Experiment: cell-based or functional assay

Sequence of CD3 on NFAT-RE-luc2-Jurkat cells (P07766 23-207): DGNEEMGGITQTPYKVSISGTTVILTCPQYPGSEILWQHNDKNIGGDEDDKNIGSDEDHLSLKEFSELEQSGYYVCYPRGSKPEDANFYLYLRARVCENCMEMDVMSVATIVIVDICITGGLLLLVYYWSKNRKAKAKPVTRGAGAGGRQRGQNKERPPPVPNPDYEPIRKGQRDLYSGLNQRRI

| Binder | increase rate due to the protease treatment (luciferase, uPA-treated / untreated), antibody 0.1 nM [ratio] | increase rate due to the protease treatment (luciferase, uPA-treated / untreated), antibody 1 nM [ratio] |
| --- | --- | --- |
| AN/GLS//GCH065 (bispecific antibody, human IgG1, kappa, N297A) heavy 1: QVQLVESGGGLVQPGRSLRLSCAASGFTFSNAWMHWVRQAPGKGLEWVAQIKDKANGYNAYYAESVKGRFTISRDDSKNSIYLQMNSLKTEDTAVYYCRYVHYTTYAGFSYKFGVDAWGQGTTVTVSSASTKGPSVFPLAPSSKSTSGGTAALGCLVKDYFPEPVTVSWNSGALTSGVHTFPAVLQSSGLYSLSSVVTVPSSSLGTQTYICNVNHKPSNTKVDKKVEPKSCDKTHTCPPCPAPELRGGPKVFLFPPKPKDTLMISRTPEVTCVVVDVSHEDPEVKFNWYVDGVEVHNAKTKPREEQYASTYRVVSVLTVLHQDWLNGKEYKCKVSNKALPAPIEKTISKAKGQPREPQVYTLPPSRKEMTKNQVSLTCLVKGFYPSDIAVEWESNGQPENNYKTTPPYLDSDGSFFLYSKLTVDKSRWQQGNVFSCSVMHEALHNHYTQKSLSLSP light 1: DIVMTQSPLSLPVTPGEPASISCRSSQSLVHSNRNTYLHWYQQKPGQAPRLLIYKVSNRFSGVPDRFSGSGSGTDFTLKISRVEAEDVGVYYCGQGTQVPYTFGQGTKLEIKRTVAAPSVFIFPPSDEQLKSGTASVVCLLNNFYPREAKVQWKVDNALQSGNSQESVTEQDSKDSTYSLSSTLTLSKADYEKHKVYACEVTHQGLSSPVTKSFNRGEC heavy 2: QVQLVQSGAEVKKPGASVTVSCKASGYTFTDYEMHWIRQPPGEGLEWIGAIDGPTPDTAYSEKFKGRVTLTADKSTSTAYMELSSLTSEDTAVYYCTRFYSYTYWGQGTLVTVSSASTKGPSVFPLAPSSKSTSGGTAALGCLVKDYFPEPVTVSWNSGALTSGVHTFPAVLQSSGLYSLSSVVTVPSSSLGTQTYICNVNHKPSNTKVDKKVEPKSCDKTHTCPPCPAPELRGGPKVFLFPPKPKDTLMISRTPEVTCVVVDVSHEDPEVKFNWYVDGVEVHNAKTKPREEQYASTYRVVSVLTVLHQDWLNGKEYKCKVSNKALPAPIEKTISKAKGQPREPQVYTLPPSREEMTKNQVSLTCLVKGFYPSDIAVEWESNGQPENNYKTTPPYLDSDGSFFLYSKLTVDKSRWQQGNVFSCSVMHEALHNHYTQESLSLSP light 2: DIVMTQSPLSLPVTPGEPASISCRSSQPLVHSNRNTYLHWYQQKPGQAPRLLIYKVSNRFSGVPDRFSGSGSGTDFTLKISRVEAEDVGVYYCGQGTQVPYTFGQGTKLEIKRTVAAPSVFIFPPSDEQLKSGTASVVCLLNNFYPREAKVQWKVDNALQSGNSQESVTEQDSKDSTYSLSSTLTLSKADYEKHKVYACEVTHQGLSSPVTKSFNRGEC | 0.6 | 0.7 |
| ANGS/GLS//GCH065 (bispecific antibody, human IgG1, kappa, N297A) heavy 1: QDGNEGGGSGGGSQVQLVESGGGLVQPGRSLRLSCAASGFTFSNAWMHWVRQAPGKGLEWVAQIKDKANGYNAYYAESVKGRFTISRDDSKNSIYLQMNSLKTEDTAVYYCRYVHYTTYAGFSYKFGVDAWGQGTTVTVSSASTKGPSVFPLAPSSKSTSGGTAALGCLVKDYFPEPVTVSWNSGALTSGVHTFPAVLQSSGLYSLSSVVTVPSSSLGTQTYICNVNHKPSNTKVDKKVEPKSCDKTHTCPPCPAPELRGGPKVFLFPPKPKDTLMISRTPEVTCVVVDVSHEDPEVKFNWYVDGVEVHNAKTKPREEQYASTYRVVSVLTVLHQDWLNGKEYKCKVSNKALPAPIEKTISKAKGQPREPQVYTLPPSRKEMTKNQVSLTCLVKGFYPSDIAVEWESNGQPENNYKTTPPYLDSDGSFFLYSKLTVDKSRWQQGNVFSCSVMHEALHNHYTQKSLSLSP light 1: DIVMTQSPLSLPVTPGEPASISCRSSQSLVHSNRNTYLHWYQQKPGQAPRLLIYKVSNRFSGVPDRFSGSGSGTDFTLKISRVEAEDVGVYYCGQGTQVPYTFGQGTKLEIKRTVAAPSVFIFPPSDEQLKSGTASVVCLLNNFYPREAKVQWKVDNALQSGNSQESVTEQDSKDSTYSLSSTLTLSKADYEKHKVYACEVTHQGLSSPVTKSFNRGEC heavy 2: QVQLVQSGAEVKKPGASVTVSCKASGYTFTDYEMHWIRQPPGEGLEWIGAIDGPTPDTAYSEKFKGRVTLTADKSTSTAYMELSSLTSEDTAVYYCTRFYSYTYWGQGTLVTVSSASTKGPSVFPLAPSSKSTSGGTAALGCLVKDYFPEPVTVSWNSGALTSGVHTFPAVLQSSGLYSLSSVVTVPSSSLGTQTYICNVNHKPSNTKVDKKVEPKSCDKTHTCPPCPAPELRGGPKVFLFPPKPKDTLMISRTPEVTCVVVDVSHEDPEVKFNWYVDGVEVHNAKTKPREEQYASTYRVVSVLTVLHQDWLNGKEYKCKVSNKALPAPIEKTISKAKGQPREPQVYTLPPSREEMTKNQVSLTCLVKGFYPSDIAVEWESNGQPENNYKTTPPYLDSDGSFFLYSKLTVDKSRWQQGNVFSCSVMHEALHNHYTQESLSLSP light 2: DIVMTQSPLSLPVTPGEPASISCRSSQPLVHSNRNTYLHWYQQKPGQAPRLLIYKVSNRFSGVPDRFSGSGSGTDFTLKISRVEAEDVGVYYCGQGTQVPYTFGQGTKLEIKRTVAAPSVFIFPPSDEQLKSGTASVVCLLNNFYPREAKVQWKVDNALQSGNSQESVTEQDSKDSTYSLSSTLTLSKADYEKHKVYACEVTHQGLSSPVTKSFNRGEC | 1 | 1 |
| ANuPA04/GLS//GCH065 (bispecific antibody, human IgG1, kappa, N297A) heavy 1: QDGNEEMGGGSGGGSGGGSLSGRSDNHGGGSQVQLVESGGGLVQPGRSLRLSCAASGFTFSNAWMHWVRQAPGKGLEWVAQIKDKANGYNAYYAESVKGRFTISRDDSKNSIYLQMNSLKTEDTAVYYCRYVHYTTYAGFSYKFGVDAWGQGTTVTVSSASTKGPSVFPLAPSSKSTSGGTAALGCLVKDYFPEPVTVSWNSGALTSGVHTFPAVLQSSGLYSLSSVVTVPSSSLGTQTYICNVNHKPSNTKVDKKVEPKSCDKTHTCPPCPAPELRGGPKVFLFPPKPKDTLMISRTPEVTCVVVDVSHEDPEVKFNWYVDGVEVHNAKTKPREEQYASTYRVVSVLTVLHQDWLNGKEYKCKVSNKALPAPIEKTISKAKGQPREPQVYTLPPSRKEMTKNQVSLTCLVKGFYPSDIAVEWESNGQPENNYKTTPPYLDSDGSFFLYSKLTVDKSRWQQGNVFSCSVMHEALHNHYTQKSLSLSP light 1: DIVMTQSPLSLPVTPGEPASISCRSSQSLVHSNRNTYLHWYQQKPGQAPRLLIYKVSNRFSGVPDRFSGSGSGTDFTLKISRVEAEDVGVYYCGQGTQVPYTFGQGTKLEIKRTVAAPSVFIFPPSDEQLKSGTASVVCLLNNFYPREAKVQWKVDNALQSGNSQESVTEQDSKDSTYSLSSTLTLSKADYEKHKVYACEVTHQGLSSPVTKSFNRGEC heavy 2: QVQLVQSGAEVKKPGASVTVSCKASGYTFTDYEMHWIRQPPGEGLEWIGAIDGPTPDTAYSEKFKGRVTLTADKSTSTAYMELSSLTSEDTAVYYCTRFYSYTYWGQGTLVTVSSASTKGPSVFPLAPSSKSTSGGTAALGCLVKDYFPEPVTVSWNSGALTSGVHTFPAVLQSSGLYSLSSVVTVPSSSLGTQTYICNVNHKPSNTKVDKKVEPKSCDKTHTCPPCPAPELRGGPKVFLFPPKPKDTLMISRTPEVTCVVVDVSHEDPEVKFNWYVDGVEVHNAKTKPREEQYASTYRVVSVLTVLHQDWLNGKEYKCKVSNKALPAPIEKTISKAKGQPREPQVYTLPPSREEMTKNQVSLTCLVKGFYPSDIAVEWESNGQPENNYKTTPPYLDSDGSFFLYSKLTVDKSRWQQGNVFSCSVMHEALHNHYTQESLSLSP light 2: DIVMTQSPLSLPVTPGEPASISCRSSQPLVHSNRNTYLHWYQQKPGQAPRLLIYKVSNRFSGVPDRFSGSGSGTDFTLKISRVEAEDVGVYYCGQGTQVPYTFGQGTKLEIKRTVAAPSVFIFPPSDEQLKSGTASVVCLLNNFYPREAKVQWKVDNALQSGNSQESVTEQDSKDSTYSLSSTLTLSKADYEKHKVYACEVTHQGLSSPVTKSFNRGEC | 1.9 | 3 |
